Test: yeast display, Sf9 membrane polyspecificity reagent, FACS + sequencing; frameworks hold sequencing errors
Summary of the method: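 Nanobodies came from a synthetic yeast display library in Saccharomyces cerevisiae BJ5465, induced with galactose for 36–48 hours and stained for 1 hour at 4 °C with 10% biotinylated, detergent-solubilized Sf9 membrane reagent. Cells were enriched on streptavidin microbeads and then FACS-sorted, with low and high (top ~1%) gates set on anti-HA fluorescence for expression and streptavidin fluorescence for reagent binding. Each polyreactivity label reflects the gate a clone came from. Genes were amplified by colony PCR, sequenced by MiSeq 2 × 250 and filtered by CDR length.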

| Sequence | polyreactivity (PSR sort gate) |
| --- | --- |
| QVQLVESGGVLVQAGGSLRLSCAASGRTFAYNTMGWYRQAPGKEREVVAAITWSGGGTYYADSVKGRFTISRDNAKKTVYLQLNSLKPEDTAVYYCAVEYATPRARFRYYYWGQGTKVTVSS | high polyreactivity |
| QVQLVESGGGLVQAGGSLRLSCAASGRTFSKYAMGWYRQAPGKERELVAAISKRGGSTSYADSVKGRFTISRDNAKNTVYLQMNSLKPEDTAVYYCAADGNRNYLYWPYGYWGQGTQVTVSS | high polyreactivity |
| QVQLVESGGGLVQAGGSLRLSCAASGLTFGDYVMGWYRPAPGKERELVATITSDGGTTYADSVKGRFTISRDNAKNTVYLQMNSLKPEDTAVYYCNADAVVDNYVGFSAAGYDYWGQGTQVTVSS | low polyreactivity |
| QVQLVESGGGLVQAGGSLRLSCAASGSIFSINTMGWYRQAPGKERELVAAITRSGSGTYYADSVKGRFTISRDNAKNTVYLQMNSLKPEDTAVYYCNADDWVGRSLRYDYWGQGTQVTVSS | low polyreactivity |
| QVQLVESGGGLVQAGGSLRLSCAASGSTFSGYMGWYRQAPGKERELVAAITSSGGSTYYADSVKGRFTISRDNAKNTVYLQMYSLKPEDTAVYYCAADGGYRGEDYWGQGTQVTVSS | high polyreactivity |
| QVQLVESGGGLVQAGGSLRLSCAASGSTFTYNDMGWYRPAPGKERELVATIDSTTRTYYADSVKGRFTISRDNAKNSVYLQMNCLKPEDTAVYYCAADLTWAYFYYLFYRYDYWGQGTKVTVSS | low polyreactivity |
| QVQLVESGGGLVQAGGSLRLSCAASGSIFPRYFMGWYRQAPGKERELVAAISQSGGSTYYADSVKGRFTISRDNAKNTVYLQMNSLKPEDTAVYYCAAEVRGWRVDYYYWGQGTQVTVSS | high polyreactivity |
| QVQLVESGGGLVQAGGSLRLSCAACGIIFVYYAMGWYRQAPGKERELVAAISSSGARTYYADSVKGRFTISRDNAKNTVYLQMNSLKPEDTAVYYCAARETRTKPIFYGYNYWGQGTQVTVSS | high polyreactivity |
| QVQLVESGGGLVQAGGSLRLSCAASGITFYGKAMGWYREAPGKERELGAAITGGGGTNYADSVKGRFTISRDNAKKTVYLQMTSLKPEDTAVYYCNRDYFVWFQRGQYKRGSSWYDNWGQGTQVTVSS | low polyreactivity |
| QVQLVESGGGLVQAGGSLRLSCAASGIPRNTMGWYRQAPGKERELVASISTSGGSTYYADSVKGRFTISRDNAKNTVYLPMNSLKPEDTAVYYCAKKGYASRYFIYDYWGQGTQVTVSS | low polyreactivity |
| QVQLVESGGGLVQAGGSLRLSCAASGITFYGNDMGWYRQAPGKERELVAAISANDGNTYYADSVKGRFTISRDNAKNTVYLQMNSLKPEDTAVYYCAAERYEDYTEYDYWGQGTQVTVSS | low polyreactivity |
| QVQLVESGGCLVQAGGSLRLSCAASGRTFYRYAMGWSRQAPGKERELVATISSRGTSTYYADSVKGRFTISRDNAKNTVYLQMNSLKPEDTAVYYCAVRGYAAGRHGYAYWGQGTQVTVSS | high polyreactivity |
| QVQLVDSGGGLVQAGGSLRLSCAASGSTFTYNSMGGYRQAPGKERELVAAITWSSDITYYADSVKGRFTISRDNAKNTVYLQMNSLIAEDTAVYYCAAYLFGPSIDDYPAFYYDYGYWGQGTQVTVSS | low polyreactivity |
| QVQLVESGGGLVQAGGSLRLSCAASGSTFGLNAMGWYRQAPGKERELVAAITRSDITNYADSVKGRFTISRDNAKNTVYLQMNSLKPEDTAVDYCAARGLWPYDYWGQGTQVTVSS | low polyreactivity |
| QVQLVDSGGGVVQAGGSLRLSCPASGIILRRYAMGWYRQAQGKERELVARISYRGGRTNYADSVKGRFTISRDNAKNTVYLQMNSLKPEDTAVYYCAAVAWDYHEGTAYNYWGQGTQVTVSS | high polyreactivity |
| QVQLVESGGGLVQAGRSLRLSCAASGRISTRYAMGWYRQAPGKERELVAAITIGTDTTYADSVKGRFTISRDNAKNTVYLQMNTLKPEDTAVYYCAAERYILARFEYWGQGTQVTVSS | low polyreactivity |
| QVQLVESGGGLVQAGGSLRLSCDASGFTFTRNAMGWYRQAPGKERELVDAISKRGGTTYYADSVKGRFTISRDYAKNTVYLQMNTLKPEDTSVYYCAKDGGITGGYWGQGTQVTVSS | high polyreactivity |
| QVQLVESGGGLVQAGGSLRLSCAASGRTFYSYAMGWYRQAPGKERELVATIRRGGRTNYADSVKGRFTISRDNAKNTVYLQMNSLKPEDTAVYYCAAEDYLSWVTSTYDYWGQGTQVAVSS | low polyreactivity |
| QVQLVESGGGLVQAGGSLRLSCAASGLILVPNTMGWYRQAPGKERELVAAISYSGGGTYYADSVKGRFTISRDNAKNTVYLQMNSLKPEDTAVYYCAADFYQSHFYRPRYDYWGQGTQVTVSS | low polyreactivity |
| QVQLVESGGGLVQAGGSLRLSCAASGRIFARNAMGWYREAPGKERELVATIRVGGGSTYYADSVKGRFTISRHNAKNTVYLQMNSLKPEDTAVYYCAVRQLYSYPGDRRGYYWGQGTQVNVSS | low polyreactivity |
| QVKLVESGGGLVQAGGSLRLSCAASGFTFYTYAMGWYRQAPGKETELFAAITGSGGRTYYADSVKGRFTISRDNAKNTVYLKMHSLKPEYTSLYYCAALYVYRPRTPYGYWGQGTQVTVSS | high polyreactivity |
| QVQLVESGGGLFQAGGSLSLSCAASGSTFVKYAMGWYRQAPGKERELVATITRRGGNTYYADSVKGRFKISRVNAKNTVYIQLNSLKPEDTEVYYCNRADYRASYSGQGSYDYWGQGTQVTVSS | high polyreactivity |

| Sequence | polyreactivity (PSR sort gate) |
| --- | --- |
| QVQLVESGGGLVQAGGSLRLICAASGSTFNDYVMGWYRQAPGKERELVAAISRSGGSTYYADSVKGRITISRDNAKNTVYLQMNSLKPEDTAVYYCAAASPGPWRYDYWGQGTQVTVSS | high polyreactivity |
| QVQLVESGGGLVQAGGSLRLICAASGLIFGPYAMGWYRQAPGKEREFVAAITRSDGSTYYADSVKGRFTISRDNAKNTVFLQMNSLNPEDTAVYYCNADAGYVWFGGAYYWPYDYWRQGTQVTVSS | low polyreactivity |
| QVQLVESGGGLVQAGGSLRLSCAASGGIFTKNAMGWYRQAPGKERELVAGISRTGGNTYYADSVKGRFTISRDNAKYTVYLQMNSLIPEDTAVYYCNALYGGPHRLRYDYWGQGTQVTVSS | low polyreactivity |
| QVHLVESGAGLVQAGGSLRISCAASGIIFRLYGLGWYRQAPGKERELVAGINTGGSTSADSVKGRFTISRDNAKNTVYLQMNSLKPEDTAVYYCARDPGYYHPWYRYDYWGQGTQVTVSS | low polyreactivity |
| QVQLVESGGGLVQAGGSLRLSCAASGRTFNDYAMGWYRQATGKERELVAGITWRGGSTYYADSVKGRFTISRDNAKNTVYLQMNSLKPEDTAVYYCNAVPRRGYSRRDYWGQGTQVTVSS | high polyreactivity |
| QVHLVESGGGLVQAGGSLRLSCAASGSTSRKYTMGWYRQAPGKERELVATISWSGGSTNYADSVKGRFTISRDNAKNTVYLQMNSLKPEETAVYYCKAYVSPRYRGSRYYYWGQGTQVTVSS | high polyreactivity |
| QVQLVESGGGLVQAGGSLRLSCAASGSIFSSYAMGWYRQAPGKERELVAAISKSGVSTYYADSVKGRFTISRDNAKNTVYLQMNSLKPEDTAVYYCNAKGKYWHYDYWGQGTQVTVSS | high polyreactivity |
| QVQLVESGGGLVQAGGSLRLTCAASGSIFVGYAMGWYRQAPGKERELVAAITGSGTRTYYADSVKGRFTISRDNAKNTVYLQMNSLKPEDTAVYYCAADYFRYYPYDYWGQGTQVTVSS | low polyreactivity |
| QVQLVESGGGLVQAGGSLRLSCAASGSTFHRYPMGWYRQAPGKERELVAAISVRTGSTYYADSVKGRFTISRDNAKNTDYLQINRLTPEDTAVYYCAVGKQINGKIYRYDYWGQGTQVTVSS | high polyreactivity |
| QVQLVESGGGLVQAGGSLRLSAASGSTLAGNTMGWYRQAPGKERELVAAINDSGGSTYYADSVKGRFTISRDNAKNTVYLQMNSLKPEDTAVYYCNAEGSAYIEDGYDYWGQGTQVTVSS | low polyreactivity |
| QVQLVESGGGLVQAGGSLRLSCAASGFIFRSYAMGWYRQAPGKERELVAAITRSGGSTYYADSVKGRFTISRDNAKNTDYLQMNSLKPEDTAVYYCATRRYWYYILDYWGQGTQVTVSS | high polyreactivity |
| QVQLVESGGGLVQAGGSLRLSCAASGRTFFDYAMGWYRQAPGKEWELVAAITASGSSTYYADSVKGRFTISRDNAKNTVYLQMNSLKPDDTAVYYCAAGASANKKITSYDYWGQGTQVTVSS | low polyreactivity |
| QVQLVETGGGLVQAGGSLRLSFAASGIISYHNAMGWYRQAPGKERELLAGITYSGGSTYYEDSVKGRFTISRVNAKNTVYLQMNSMKPEDTAVYFCAARVVYWTWSCLSKMDYWGQGTQVTVSS | high polyreactivity |
| QVQLVESGGALVQAGGSLRLSCAASGSIFRYNAMGWYRQAPGKEREFVAIISYSGVRTYYADSVKGRFTISRDNAKNTVYLQMNSLKPADTAVYYCAADFKQKGHRTRTTYWGQGTQVTVSS | high polyreactivity |
| QVQLVESGGGLVQAGGSLRLSCAASGFIFRRNTMGWYRQAPGKERELVAVITWSGGRTYYADSVKGRFTISRDNAKNTVYLQMNSLKPEDTAVYDCTAEQWWSLDYWGQGTQVTVSS | low polyreactivity |
| QVQLVESGGGLVQAGGSLRLSCAASGSTIDYYAMGWYRQAPGKERELVAAIDWSGDSTYYADSVKGRFTISRDNAKNTVYLQMNSLKPEDTAVYYCAADLDSRGTYGRYEYWGQGTQVTVSS | low polyreactivity |
| QVQLVESGGGLVQAGGSLRLSCAASGRTFKSYAMGWYRQAPGKERELVATITRDGRTNYADSVKGRFTISRDNAKNTVYLQMNSLKPEDTAVYYCNADSRYRYDYWGLGTQVTVSS | low polyreactivity |
| QVQLVESGGGLVQAGGSLRLSCAASGFIFGTYAMGWYRQAPGKERELVAAISRVGNTSYADSVKGRFTISRDNAKNTVYLQMNSLKPEDTAVYYCAADAPSWYDRQYDYWGQGTQVTVSS | low polyreactivity |
| QVQLVESGGGLVQAGGSLRLSCAASRSTFPFYAMGWYRQAPGKERELVAAITSGGSTYADSVKGRFTISRDNAKNTVYLQMNSLKPEDTAVYYCAASWPRWWRFGYWGQGTQVTVSS | low polyreactivity |
| QVQLVESGGGLDQAGGRLRLICAASGNTFRFYTLGWYRQAPGQETEFVAAINSSGRTNYADSVKGRFTISRDNATNTVYLQMNSLKPEDTAVYYCAADYYQRSTFLGVDEYDYWGQGTQVTVSS | low polyreactivity |
| QVQLVESGGGLVQAGGSLRLSCAASGFTFGRNVIGWYRQAPGKERELVAAISLSGGSTYYADSVKGRFTISRDNAKNTVYLQMNSLKPEDTAVYYCAAGYITWYDYWGQGTQVTVSS | high polyreactivity |

— the nanobody polyreactivity screen of Harvey et al. (2022)
